# T1: human IL-10 receptor (hIL-10R alpha and beta chains) on HEK-Blue IL-10 reporter cells (human, UniProt Q13651 22-578; Q08334 20-325)
# T1 sequence 1: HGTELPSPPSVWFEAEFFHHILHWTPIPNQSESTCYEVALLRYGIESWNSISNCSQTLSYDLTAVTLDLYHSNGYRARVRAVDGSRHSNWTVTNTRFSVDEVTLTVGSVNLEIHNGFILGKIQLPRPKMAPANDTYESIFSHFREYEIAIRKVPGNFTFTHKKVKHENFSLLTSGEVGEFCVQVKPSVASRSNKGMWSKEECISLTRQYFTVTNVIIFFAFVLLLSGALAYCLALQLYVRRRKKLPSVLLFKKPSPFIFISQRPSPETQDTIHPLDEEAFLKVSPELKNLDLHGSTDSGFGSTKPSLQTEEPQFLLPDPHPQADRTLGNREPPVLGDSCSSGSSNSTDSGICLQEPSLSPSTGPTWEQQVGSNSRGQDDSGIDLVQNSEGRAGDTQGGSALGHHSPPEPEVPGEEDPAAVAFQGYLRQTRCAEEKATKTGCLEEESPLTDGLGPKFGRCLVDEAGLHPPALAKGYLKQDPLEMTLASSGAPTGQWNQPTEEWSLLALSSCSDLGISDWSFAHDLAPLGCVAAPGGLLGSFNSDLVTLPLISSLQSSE
# T1 sequence 2: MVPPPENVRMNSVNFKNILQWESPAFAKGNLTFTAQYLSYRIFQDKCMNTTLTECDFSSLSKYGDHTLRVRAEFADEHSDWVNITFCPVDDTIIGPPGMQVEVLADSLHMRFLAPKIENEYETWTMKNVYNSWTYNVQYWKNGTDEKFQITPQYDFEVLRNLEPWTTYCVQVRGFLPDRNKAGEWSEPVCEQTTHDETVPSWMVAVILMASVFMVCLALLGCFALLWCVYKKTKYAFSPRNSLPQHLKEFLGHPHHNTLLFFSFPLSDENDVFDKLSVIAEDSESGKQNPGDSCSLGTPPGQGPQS
# Target: T1, human IL-10 receptor (hIL-10R alpha and …)
# Experiment: cell-based or functional assay
Binder,Abs 630 (25 nM) [Abs 630],Abs 630 (100 nM) [Abs 630]
IL10R binding molecule of SEQ ID NO: 348 (bispecific antibody) QVQLQESGGGSVQTGGSLRLSCAASGYTYLRGCMGWFRQAPGKEREGVAVMDVVGDRRSYIDSVKGRFTISRDNAANSVYLQMDNLKPEDTAMYYCTAGPNCVGWRSGLDYWGQGTQVTVSSGGGSQVQLQESGGGSVQAGGSLRLSCAASRFTYSSYCMGWFRQAPGKEREGVASIDSDGSTSYTDSVKGRFTISKDNAKNTLYLQMNSLKPEDTAMYYCALDLMSTVVPGFCGFLLSAGMDYWGKGTQVTVSSASHHHHHH,0.46,0.36
IL10R binding molecule of SEQ ID NO: 267 (bispecific antibody) QVQLQESGGGSVQAGGSLRLSCAASRFTYSSYCMGWFRQAPGKEREGVASIDSDGSTSYTDSVKGRFTISKDNAKNTLYLQMNSLKPEDTAMYYCALDLMSTVVPGFCGFLLSAGMDYWGKGTQVTVSSGGGSQVQLQESGGGSVEAGGSLRLSCAASGYTHSSYCMGWFRQAPGKEREGVAAIDVDGSTTYADSVKGRFTISKDNAKNTLYLQMNSLKPEDTGMYYCAAEFADCSSNYFLPPGAVRYWGQGTQVTVSSASHHHHHH,0.75,0.53
IL10R binding molecule of SEQ ID NO: 345 (bispecific antibody) QVQLQESGGGSVQAGGSLRLSCAASGYSYSSYCMGWFRQAPGKEREGVATIDSDGMTRYADSVKGRFTISKDNAKNTLYLQMNSLKPEDTAMYYCAAPLYDCDSGAVGRNPPYWGQGTQVTVSSGGGSQVQLQESGGGSVQAGGSLRLSCGASGYTYSSYCMGWFRQVPGKEREGVAVIDSDGSTSYADSVKGRFTISKDNGKNTLYLQMNSLKPEDTAMYYCAADLGHYRPPCGVLYLGMDYWGKGTQVTVSSASHHHHHH,0.52,0.44
IL10R binding molecule of SEQ ID NO: 344 (bispecific antibody) QVQLQESGGGSVQAGGSLRLSCAASGYSYSSYCMGWFRQAPGKEREGVATIDSDGMTRYADSVKGRFTISKDNAKNTLYLQMNSLKPEDTAMYYCAAPLYDCDSGAVGRNPPYWGQGTQVTVSSGGGSQVQLQESGGGSVQAGGSLRLSCTVSGYTYSSNCMGWFRQAPGKEREGVATIYTGGGNTYYADSVKGRFTISQDNAKNTVYLQMNNLKPEDTAMYYCAAEPLSRVYGGSCPTPTFDYWGQGTQVTVSSASHHHHHH,0.5,0.43
IL10R binding molecule of SEQ ID NO: 347 (bispecific antibody) QVQLQESGGGSVQTGGSLRLSCAASGYTYLRGCMGWFRQAPGKEREGVAVMDVVGDRRSYIDSVKGRFTISRDNAANSVYLQMDNLKPEDTAMYYCTAGPNCVGWRSGLDYWGQGTQVTVSSGGGSQVQLQESGGGSVQAGGSLRLSCAASRYLYSIDYMAWFRQSPGKEREPVAVIYTASGATFYPDSVKGRFTISQDNAKMTVYLQMNSLKSEDTAMYYCAAVRKTDSYLFDAQSFTYWGQGTQVTVSSASHHHHHH,0.45,0.35
IL10R binding molecule of SEQ ID NO: 266 (bispecific antibody) QVQLQESGGGSVQAGGSLRLSCAASRFTYSSYCMGWFRQAPGKEREGVASIDSDGSTSYTDSVKGRFTISKDNAKNTLYLQMNSLKPEDTAMYYCALDLMSTVVPGFCGFLLSAGMDYWGKGTQVTVSSGGGSQVQLQESGGGSVQAGGSLRLSCTVSRYTASVNYMGWFRQAPGKEREGVATIFTGAGTTYYANSVKGRFTISRDNAKNTAYLQMNSLKPEDTAIYYCAVDFRGGLLYRPAYEYTYRGQGTQVTVSSASHHHHHH,0.49,0.39
IL10R binding molecule of SEQ ID NO: 349 (bispecific antibody) QVQLQESGGGSVQTGGSLRLSCAASGYTYLRGCMGWFRQAPGKEREGVAVMDVVGDRRSYIDSVKGRFTISRDNAANSVYLQMDNLKPEDTAMYYCTAGPNCVGWRSGLDYWGQGTQVTVSSGGGSQVQLQESGGGSVQAGGSLRLSCAASGYTYSMYCMGWFRQAPGKEREGVAQINSDGSTSYADSVKGRFTISKDNAKNTLYLQMNSLKPEDTAMYYCAADSRVYGGSWYERLCGPYTYEYNYWGQGTQVTVSSASHHHHHH,0.46,0.38
IL10R binding molecule of SEQ ID NO: 265 (bispecific antibody) QVQLQESGGGSVQAGGSLRLSCAASRFTYSSYCMGWFRQAPGKEREGVASIDSDGSTSYTDSVKGRFTISKDNAKNTLYLQMNSLKPEDTAMYYCALDLMSTVVPGFCGFLLSAGMDYWGKGTQVTVSSGGGSQVQLQESGGGSVQAGGSLRLSCAASRYTYNSYCMGWFRQAPGKEREGVATIDSDGMTRYADSVKGRFTISKDNAKNTLYLQMNSLKPEDTAMYYCAADADCTIAAMTTNPLGQGTQVTVSSASHHHHHH,0.54,0.46
IL10R binding molecule of SEQ ID NO: 264 (bispecific antibody) QVQLQESGGGSVQAGGSLRLSCAASRFTYSSYCMGWFRQAPGKEREGVASIDSDGSTSYTDSVKGRFTISKDNAKNTLYLQMNSLKPEDTAMYYCALDLMSTVVPGFCGFLLSAGMDYWGKGTQVTVSSGGGSQVQLQESGGGSVQAGGSLRLSCAASGYTYSSYCMGWFRQAPGKEREGVAHIDSDGSTSYADSVKGRFTISKDNAKNTLYLQMNSLKPEDTAMYYCAADPIPGPGYCDGGPNKYWGQGTQVTVSSASHHHHHH,1.52,0.67
IL10R binding molecule of SEQ ID NO: 268 (bispecific antibody) QVQLQESGGGSVQAGGSLRLSCAASRFTYSSYCMGWFRQAPGKEREGVASIDSDGSTSYTDSVKGRFTISKDNAKNTLYLQMNSLKPEDTAMYYCALDLMSTVVPGFCGFLLSAGMDYWGKGTQVTVSSGGGSQVQLQESGGGSVQAGGSLRLSCAASGYSYSSYCMGWFRQAPGKEREGVATIDSDGMTRYADSVKGRFTISKDNAKNTLYLQMNSLKPEDTAMYYCAAPLYDCDSGAVGRNPPYWGQGTQVTVSSASHHHHHH,0.53,0.41
IL10R binding molecule of SEQ ID NO: 351 (bispecific antibody) QVQLQESGGGSVQTGGSLRLSCAASGYTYLRGCMGWFRQAPGKEREGVAVMDVVGDRRSYIDSVKGRFTISRDNAANSVYLQMDNLKPEDTAMYYCTAGPNCVGWRSGLDYWGQGTQVTVSSGGGSQVQLQESGGGSVQAGGSLRLSCTVSGYTYSSNCMGWFRQAPGKEREGVATIYTGGGNTYYADSVKGRFTISQDNAKNTVYLQMNNLKPEDTAMYYCAAEPLSRVYGGSCPTPTFDYWGQGTQVTVSSASHHHHHH,0.43,0.34

# Next, values leading:
Abs 630 (25 nM) [Abs 630],Abs 630 (100 nM) [Abs 630],Binder
0.43,0.35,IL10R binding molecule of SEQ ID NO: 350 (bispecific antibody) QVQLQESGGGSVQTGGSLRLSCAASGYTYLRGCMGWFRQAPGKEREGVAVMDVVGDRRSYIDSVKGRFTISRDNAANSVYLQMDNLKPEDTAMYYCTAGPNCVGWRSGLDYWGQGTQVTVSSGGGSQVQLQESGGGSVQAGGSLRLSCAVSGYAYSTYCMGWFRQAPGKEREGVAAIDSGGSTSYADSVKGRFTISKDNAKNTLYLRMNSLKPEDTAMYYCAAVPPPPDGGSCLFLGPEIKVSKADFRYWGQGTQVTVSSASHHHHHH
0.43,0.35,IL10R binding molecule of SEQ ID NO: 346 (bispecific antibody) QVQLQESGGGSVQAGGSLRLSCAASGYSYSSYCMGWFRQAPGKEREGVATIDSDGMTRYADSVKGRFTISKDNAKNTLYLQMNSLKPEDTAMYYCAAPLYDCDSGAVGRNPPYWGQGTQVTVSSGGGSQVQLQESGGGSVQAGGSLRLSCAASGYSNCSYDMTWYRQAPGKEREFVSAIHSDGSTRYADSVKGRFFISQDNAKNTVYLQMNSLKPEDTAMYYCKTDPLHCRAHGGSWYSVRANYWGQGTQVTVSSASHHHHHH
0.54,0.65,IL10R binding molecule of SEQ ID NO: 352 (bispecific antibody) QVQLQESGGGSVQTGGSLRLSCAASGYTYLRGCMGWFRQAPGKEREGVAVMDVVGDRRSYIDSVKGRFTISRDNAANSVYLQMDNLKPEDTAMYYCTAGPNCVGWRSGLDYWGQGTQVTVSSGGGSQVQLQESGGGSVQAGGSLRLSCGASGYTYSSYCMGWFRQVPGKEREGVAVIDSDGSTSYADSVKGRFTISKDNGKNTLYLQMNSLKPEDTAMYYCAADLGHYRPPCGVLYLGMDYWGKGTQVTVSSASHHHHHH
0.56,0.61,IL10R binding molecule of SEQ ID NO: 353 (bispecific antibody) QVQLQESGGGSVQTGGSLRLSCAASGYTYLRGCMGWFRQAPGKEREGVAVMDVVGDRRSYIDSVKGRFTISRDNAANSVYLQMDNLKPEDTAMYYCTAGPNCVGWRSGLDYWGQGTQVTVSSGGGSQVQLQESGGGSVQAGGSLRLSCAASGYSNCSYDMTWYRQAPGKEREFVSAIHSDGSTRYADSVKGRFFISQDNAKNTVYLQMNSLKPEDTAMYYCKTDPLHCRAHGGSWYSVRANYWGQGTQVTVSSASHHHHHH
0.46,0.37,IL10R binding molecule of SEQ ID NO: 343 (bispecific antibody) QVQLQESGGGSVQAGGSLRLSCAASGYSYSSYCMGWFRQAPGKEREGVATIDSDGMTRYADSVKGRFTISKDNAKNTLYLQMNSLKPEDTAMYYCAAPLYDCDSGAVGRNPPYWGQGTQVTVSSGGGSQVQLQESGGGSVQAGGSLRLSCAVSGYAYSTYCMGWFRQAPGKEREGVAAIDSGGSTSYADSVKGRFTISKDNAKNTLYLRMNSLKPEDTAMYYCAAVPPPPDGGSCLFLGPEIKVSKADFRYWGQGTQVTVSSASHHHHHH

# Reference: patent publication US20250163167A1 (SYNTHEKINE, published 2025)
